Assay [1] concerns the target N-terminally GFP-tagged full-length wild-type MyD88 (human) (UniProt Q99836). Nature of the assay: single-molecule fluorescence fluctuation spectroscopy (brightness B parameter, time-traces, intensity histograms); GFP-tagged protein freely diffusing in the cell-free expression mixture on a confocal microscope, 488-nm laser; dilution series of the DNA template giving 0 to about 320 nM protein; mutants compared at 150 nM; samples diluted 10 times in buffer A.

Assay [2] has the same target. As to the kind of experiment: fluorescence correlation spectroscopy (FCS); GFP-tagged protein in the cell-free expression mixture; single diffusing species model; hydrodynamic radius normalised to sfGFP.
The target of assay [3] is mCherry-tagged full-length wild-type MyD88 (human) (UniProt Q99836). Nature of the assay: two-colour single-particle coincidence spectroscopy (seeding assay); mCherry-tagged full-length MyD88 filaments spun down and sonicated ('seeds') added to GFP-tagged full-length MyD88 expressed over a range of concentrations (10 nM and above); 488 nm and 561 nm lasers; traces of 180 s.

Bounds are passed on as bounds.

Sequence of mCherry-tagged full-length wild-type MyD88 (human) (Q99836 whole entry): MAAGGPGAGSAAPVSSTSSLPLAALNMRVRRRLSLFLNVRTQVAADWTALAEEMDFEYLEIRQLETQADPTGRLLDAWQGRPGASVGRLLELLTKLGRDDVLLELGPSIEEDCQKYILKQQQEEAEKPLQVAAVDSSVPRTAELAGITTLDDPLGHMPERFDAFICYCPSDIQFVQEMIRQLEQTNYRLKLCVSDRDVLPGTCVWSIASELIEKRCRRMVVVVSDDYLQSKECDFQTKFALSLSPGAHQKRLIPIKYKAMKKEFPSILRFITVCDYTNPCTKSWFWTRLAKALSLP

What is called stoichiometry N is the number of molecules, sites or subunits per partner or assembly. For “N-terminally GFP-tagged full-length wild-type MyD88 (from UniProt Q99836 1-296) (natural protein)”, in assay [1], the critical concentration for aggregation (Cc) worked out at 150 nM and the stoichiometry N is greater than 100 proteins. The stoichiometry N (monomeric units) in assay [2] was greater than 100. The critical concentration for polymerisation in the presence of seeds in assay [3] was found to be 10 nM.

The values are drawn from paper PMC6304784.
